No end group written: not given here.
Target: SNX27 PDZ (amino acids 740–141) (human, UniProt Q96L92 43-136)
Test: fluorescence polarisation
Conditions: both partners purified

B1: FITC-labeled peptide NSP11 4393-4405 of SARS-CoV-2 (peptide)
peptide: SADAQSFLNGFAV
modifications: also: FITC-labeled
With B1 the Kd was over 400 µM.

Source: paper PMC9610207 (Viruses, 2022)
